Consider 14 sequences from the DeepSol protein solubility set.

The nature of this data set: soluble on expression in E. coli; label from the status in PepcDB or PDB records.
In the case of “GDAFVGTWKLVSSENFDDYMKEVGVGFATRKDAGMAKPNMIISVNGDLVTIRSESTHKNTEISFKLGVEFDEITADDRKVKSIITLDGGALVQVQKWDGKSTTIKRKRDGDKLVVECVMKGVTSTRVYERA”, the “soluble on expression in E. coli” value is listed as “soluble”.

With “MANHARVVRGGEMASAQWLQALAAGVEPEVRMNPVLVKPFGERGAQVVVWGKVDPFLSGLPWKERRPHLEAPVREALEGLLAEYDLLVLEGAGSPVERNLWPDLPNLRVAEWADAKALLVADVDQGGALGALYGTWALLGEHRKRLIGFAFNKFRGDLELLKPAYALLRDWTGLPVLGTLPLLPLALPEEDGFRYRQPAGNGPKVALLRYPHAANLDEFWPLSELAQVVYAHSPEEAEGAWLLILPGSRLPARDLPWLRAFLPLIQRHLEAGKPVLAVCGGAEMLSEALLDEEGVEERGHFPGLGLLPYRVRMAREKTVERRRVRLRGLSGYWGRLEGLEVEGYEIHHGQGLPLFHQEGSLLATWLHGLLENPGVQKALFGREARGLEEGLEALADALERHLDLRALHRALGLTGRAFPASPTEAKAPVGCPDPPPPPGLVLLLGGAKSGKSRFAQRLAGPFATLVATAEARDEEMAEKIRRHQEERPPTWETLEAPLDLVGALKRARHPTVVVDCLTLWVANLMERGLDPLLEARRFLSAVEESGKRVIAVSNEVGMGIVPQNPLARRYRDLLGQVNALLAEAAQEAYLLVAGRALPLGGGKVPAQEAKRPGSHGGEPGPGRSRDPGP”, the “soluble on expression in E. coli” value is on record as “soluble”. For “MGSDKIHHHHHHMNMNREQLKFCLLGAVFLFGGCTASDPRTHLDSSADTLFQITPDQNHAALERQSGTDQYLKLLLNVAEDAEVKEVQVKPGLVSKDTATLSMPLTDGRTVSFKLSRSDSVASGMVGWVGDMPSNRRQLYPSPAEIDMDPLNWVSLVSDGNLVVGDIRVDGQLYRLTAVGKGQQVLVKVDESKLPPEAAPIPVPVQAQEKTRSLSTSQSRKSTIRVLFVTTHQSRAMFPNYKIELAQALQNANQYLINSKVDAVYELSDIYDSDYDETGKSPQTQLSDMKADKPFGAKIHIEREKGRADLVSMLSTFSIYCGIANLTASVERAFSAISCFGSLGHELGHNMGAGHKDEAPVASLPPYAYGYQHTAPNFHTQMRTSNGAIPYHSNPRLQYQGVPMGTVDKNDVARTFNENRDTVANFYPDPAHRVRLWLYGANRGCFIDLKPGEQALLSWFTECKDNDVNPVRVEVKDFYSGSTPRKLCFANIFYTVNSCYTGSNFSGDFVITSVHTGGGKPEGFKFTRRLIGPVYRVSYE”, the “soluble on expression in E. coli” value is on record as “not soluble”.

Regarding “MGGYGGVKMEGMLKGEGPGPLPPLLQQYVELRDRYPDYLLLFQVGDFYECFGEDAERLARALGLVLTHKTSKDFTTPMAGIPIRAFDAYAERLLKMGFRLAVADQVEPAEEAEGLVRREVTQLLTPGTLTQEALLPREANYLAAIATGDGWGLAFLDVSTGEFKGTLLKSKSALYDELFRHRPAEVLLAPELRENEAFVAEFRKRFPVMLSEAPFEPQGEGPLALRRAQGALLAYARATQGGALSVRPFRLYDPGAFVRLPEASLKALEVFEPLRGQDTLFGVLDETRTAPGRRLLQAWLRHPLLERGPLEARLDRVERFVREGALREGVRRLLFRLADLERLATRLELSRASPRDLAALRRSLEILPELKGLLGEEVGLPDLSGLLEELRAALVEDPPLKVSEGGLIREGYDPDLDALRRAHAEGVAYFLDLEAREKERTGIPTLKVGYNAVFGYYLEVTRPYYEKVPQEYRPVQTLKDRQRYTLPEMKERERELYRLEALIKRREEEVFLALRERARKEAEALREAARILAELDVYAALAEVAVRHGYTRPRFGERLRIRAGRHPVVERRTAFVPNDLEMAHELVLVTGPNMAGKSTFLRQTALIALLAQIGSFVPAEEAELPLFDGIYTRIGASDDLAGGKSTFMVEMEEVALVLKEATERSLVLLDEVGRGTSSLDGVAIATALAEALHERRCYTLFATHYFELTALALPRLKNLHVAAKEEEGGLVFYHQVLPGPASKSYGVEVAEMAGLPKEVVERARALLSAMAARREGALEEVLERLLALDPDRLTPLEALRFLHELKALALGLPLGSMKG”, the “soluble on expression in E. coli” value is on record as “soluble”. Next, “MKITSYVSFLYCLCLMLASPTVQASEVRTAIFEGKPCINPPHVVGNYPATPFLFYIPTSGERPIKWHAENLPKGLKLDKETGIIKGKVVEKGTYKVMLKAENALGTDTQELLINIGDELLLTPPMGWNSWNTFGRHLTEELLLQTADAMVENGMRDLGYAFINIDDFWQLPERGADGHIQIDKTKFPRGIKYVADYLHERGFKLGIYSDAADKTCGGVCGSYGYEEIDARDFASWGVDLLKYDYCNAPAGRVEAMERYEKMGRALRATDRSIVFSICEWGQREPWKWAKKVGGHLWRVSGDIGDLWNRSTDEKGGLRGILNILEINAPLSEYARPGGWNDPDMLVVGIGGKSKSIGYESEGCTNEQYQSHFALWCMMASPLLCGNDVRQMNDSTLQILLNKDLIAINQDPLGIQAERAIRADHYDVWVKPLSDGSKAIACLNRISGPVDVELNVKTVEGLSLDRVYDVIEGSLVAEASTGWVVKLAPGECKVFICKLEHHHHHH”: “not soluble”; “MSLELNGRALSSTIAPRTQAQRILQTQKISSTDLVVVIGLGNPHLIFEVHKSLEPGQVLLLVDEYPELIFPLWDGILEPVMDVPGRHLFLGHSALNLLWNYLESLPVERVSGIRVFRNTASTALNETYYSDLEIKIRKILSSKMSDLLTKFEFERIWVRNTFVNTANFPDSKNPRTRIESLKGKFLDTPAMLVSAGPSLRSQCEWISKVRDKVFLFSCDTSFKALLKFGIVPDGVITLDAQTHSFFHFMGAESSNVPLFADLVSSPSILRSQKFTKIVHSLSAKYVVDASGEFKREVTAGSKTAEKLLGPIGDIQSGGSVATTAFDLLRNLGCKPIFLVGQDLAYSGREEGHHHHHH”: “not soluble”. In the case of “MSLTILQELPKLSPLPARKLGSYTCKTVHMTTTELLPFHAVGTSPDAAAQADSNIETQFANVLHSLQVNKQRDPFDIIQDFKQICADRALSTRDKLSLDESNTALAEEFDNWDLEFKLWELVDRLFRFRALFSNKAKTELLREYDFSSMGIKQENFLRKNPAIRELSIIILWLQSHTPSLVGDETESYQTKWKNTAMAVANSDFDVLASRATDADLIDKLDIDAPLRSNRSIHPADESNDSKVFAQIYKLLLQDRVQDAIDIANNTGNYALALILVGATQEYFDPVLDKQDLDFDSIVAEQTKPSGIKHKLLWKKTVYKLSQQANLNKYEKLIYNYLCGGDISGNLLVASDDWEQTLLLYLSQLYSYNIDNFIVSQLSSEQEILPVNIPKPQLNTIAEILNTILHSGNLLTQQSENPLRVIMGSVMLDNVPSLLHNLTSSLTGEPEALKKPYISRVLTHLAIFQLLVVGTDNINNEDITTIITSYTSKLAEYKLPELIPIYLSFVPNEKDSREAYALFLSSLTDSSDRSKQIEISRRIANSISEVDEAMELAANTQEDKMMNVLRRTVERVMKDTESHYKPQAVIEVQDDINSVDDIDSKLYHSVEWFYENKMYEDAIVATIAIIRRFLLCGKLAPLKAFSKGKNFKLLLVEYDTQLQTKSLIFQNEPEIVTEEDKEELLAYASLIEGLILIDEWKKFVSTQINSEGHHHHHH”, the “soluble on expression in E. coli” value is on record as “not soluble”.

Take “MKCLVTGGNVKVLGKAVHSLSRIGDELYLEPLEDGLSLRTVNSSRSAYACFLFAPLFFQQYQAATPGQDLLRCKILMKSFLSVFRSLAMLEKTVEKCCISLNGRSSRLVVQLHCKFGVRKTHNLSFQDCESLQAVFDPASCPHMLRAPARVLGEAVLPFSPALAEVTLGIGRGRRVILRSYHEEEADSTAKAMVTEMCLGEEDFQQLQAQEGVAITFCLKEFRGLLSFAESANLNLSIHFDAPGRPAIFTIKDSLLDGHFVLATLSDTDSHSQDLGSPERHQPVPQLQAHSTPHPDDFANDDIDSYMIAMETTIGNEGSRVLPSISLSPGPQPPKSPGPHSEEEDEAEPSTVPGTPPPKKFRSLFFGSILAPVRSPQGPSPVLAEDSEGEGLEHHHHHH”: the “soluble on expression in E. coli” value is given as “not soluble”. Regarding “MASIKEELISAAESESQVMQIVQAALEGIDMDALTSMTPGLPQTVRQTAINSLLSSKKLAIQQAPGGVLRLKVNTSEQIAGTEEEQVIYSLIEESKTRGIWIKELREGSGLNQLQLRKTLKSLETKKLIKTIKAVGTTRKCYILFSIEPDMSLTGGTFYSDQQLDSELINTLISVCGSYAASRRKHAIDENPNNIQMQREASYIRPQEIAQFITEKRVLNVPLSLEDLERILEVAVLDGTIERRADGKIRACPPRSSISPLVSVPCAICPVVEDCRPGYVISPQSCDYMKNWLADL”, the “soluble on expression in E. coli” value is “not soluble”.

Consider “MGSDKIHHHHHHMKREEIADLMAFVVVAEERSFTRAAARLSMAQSALSQIVRRIEERLGLRLLTRTTRSVVPTEAGEHLLSVLGPMLHDIDSAMASLSDLQNRPSGTIRITTVEHAAKTILLPAMRTFLKSHPEIDIQLTIDYGLTDVVSERFDAGVRLGGEMDKDMIAIRIGPDIPMAIVGSPDYFSRRSVPTSVSQLIDHQAINLYLPTSGTANRWRLIRGGREVRVRMEGQLLLNTIDLIIDAAIDGHGLAYLPYDQVERAIKEKKLIRVLDKFTPDLPGYHLYYPHRRHAGSAFSLFIDRLKYKGAV”, for which the “soluble on expression in E. coli” value is on record as “not soluble”. “MNTLLLDKGEQQVHLNLKYANRHGLIAGATGTGKTVSLMSLAEGFSRQGVPVFITDIKGDISGLGVAGTPNDKLLQRAAEIGVEGYQTEANPVVFWDLAGIQGHPLRTTVSEMGPTLLGRILELNDTQSSILDIVFQLADDQGLLLLDLDDLRAMLNLVADERKDISAKYGLISAQSLAAIQRSVLGLERDGGKDFFGEPALQLEDLMRTNLQGRGIINLLAANKLILTPNLYSSFLLWLLSELFENLPEVGDLDKPKLVFFIDEAHLLFEGCPASLLKRIEQIMRLIRSKGVGVYFCSQFPDDIPNEILGQLGNRIQHALRAYTPRDQKAVKTAAETFVSNPKLVVSEVISQLAVGEALVSTLAEKGVPTMVERTLIAPPRCRMGPANPEELTAIRALSPIGGKYDTLINRESAYERLNQRHTDETNGVNTAQPAANEAEQGWLSELIFGNKRRQGLAETLSKQAARTVGNQLGKQILRGLLGGILGKSTRR”: the “soluble on expression in E. coli” value is reported as “not soluble”. Turning to “GSMTEETHPDDDSYIVRVKAVVMTRDDSSGGWFPQEGGGISRVGVCKVMHPEGNGRSGFLIHGERQKDKLVVLECYVRKDLVYTKANPTFHHWKVDNRKFGLTFQSPADARAFDRGVRKAIEDLIE”, the “soluble on expression in E. coli” value is reported as “soluble”.

As to “MSLNRKHETVSEFVRHLPCENCGSSDANSIYTDNHQYCFACEHYVHGDGETPTTGGRTKRMEGLISGEFKPLMKRKLTLETCRKFGYFVSEVRGRLVQVAPYFDNSGVMVAQKLRDQDKGFAILGDGAKLTLFGQNLWASGGKKIVVTEGELDAMSVSQVQNNKWPVVSLPNGAPAARKAIQRNIEYLESFEEVILMFDMDEPGREAAQECAELFSPGKCKIATLSMKDANELLVAGREQEIVTAIWNAKLYRPDGVVNVRDLLEEIRKALVMGLPWFLDPLTQLTYGRRYGEVYGLGAGTGVGKTDFLTQQIAYDIQVLGERVGTIFLEQKPTETAKRVAGKIAGKRFHVPKDTAGWTDEELDAAVDALGENLVMYDAFGETEWDIVKRKVRYMAVSEGIKLIYIDHLTAMADTADEKGSLEQIMKEMAGLANELGIIITFISHLTTPEGKPHEEGGRVTIRHFKGSRAIGFWSYFMFGLERDQQAEDPVVRQTTTFRILKDRCTGQATGEVLYLAYDRDTGLLSLTEAPEPSSPFKDESEGHHHHHH”, the “soluble on expression in E. coli” value is listed as “soluble”. Next, “MGHHHHHHSHKKHNQGKEAAQRVLSQIDVAQKKLQDVSMKFRLFQKPANFEQRLQESKMILDEVKMHLPALETKSVEQEVVQSQLNHCVNLYKSLSEVKSEVEMVIKTGRQIVQKKQTENPKELDERVTALKLHYNELGAKVTERKQQLEKCLKLSRKMRKEMNVLTEWLAATDMELTKRSAVEGMPSNLDSEVAWGKATQKEIEKQKVHLKSITEVGEALKTVLGKKETLVEDKLSLLNSNWIAVTSRAEEWLNLLLEYQKHMETFDQNVDHITKWIIQADTLLDESEKKK”: “soluble”.
